Source: patent publication US6998123B1, “Osteoporosis treatment with anti-IL-11 antibody” (priority 1998, dated 2006)
Changes are numbered by the printed parent chain. Entries after “also recorded” stand apart in the source; their conditions may differ. Ends that are not written are not given here.

T1: IL-11 (Homo sapiens, UniProt P20809)
T1 sequence (P20809 22-199): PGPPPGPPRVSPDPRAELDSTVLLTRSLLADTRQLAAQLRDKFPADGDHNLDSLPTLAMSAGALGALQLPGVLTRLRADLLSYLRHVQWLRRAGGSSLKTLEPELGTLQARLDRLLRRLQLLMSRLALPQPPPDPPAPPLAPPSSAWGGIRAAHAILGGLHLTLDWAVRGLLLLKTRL

B1: IL-11: cytokine interleukin-11, added exogenously to cultures (protein, UniProt P47873 22-199, looked up)
Interleukin-11: PGPPAGSPRVSSDPRADLDSAVLLTRSLLADTRQLAAQMRDKFPADGDHSLDSLPTLAMSAGTLGSLQLPGVLTRLRVDLMSYLRHVQWLRRAGGPSLKTLEPELGALQARLERLLRRLQLLMSRLALPQAAPDQPVIPLGPPASAWGSIRAAHAILGGLHLTLDWAVRGLLLLKTRL
B2: H289→Y289 mutant solubilized IL-11 receptor: soluble human IL-11 receptor mutated H289 to Y in the gp130 binding region, expressed in BHK cells (protein)
chain: SPCPQAWGPPGVQYGQPGRSVKLCCPGVTAGDPVSWFRDGEPKLLQGPDSGLGHELVLAQADSTDEGTYICQTLDGALGGTVTLQLGYPPARPVVSCQAADYENFSCTWSPSQISGLPTRYLTSYRKKTVLGADSQRRSPSTGPWPCPQDPLGAARCVVHGAEFWSQYRINVTEVNPLGASTRLLDVSLQSILRPDPPQGLRVESVPGYPRRLRASWTYPASWPCQPHFLLKFRLQYRPAQHPAWSTVEPAGLEEVITDAVAGLPYAVRVSARDFLDAGTWSTWSPEAWGTPSTGTIPKEIPAWGQLHTQPEVEPQVDSPAPPRPSLQPHPRLLDHRDSVEQVAVLA
modifications: left off: small tags and cut ends
B3: soluble form of murine interleukin-11 receptor: soluble form of murine IL-11R produced by Karow et al. (protein)
chain: B2 chain with Y266H
modifications: left off: small tags and cut ends

How the values were obtained:
Interleukin-11 (IL-11) = experiment: cell-based or functional assay
IL-11 and IL-11R = experiment: productive interaction of IL-11 and IL-11R; set-up: species or system human; details: no test named at this place
[1] = system: cocultures of murine bone marrow and calvaria cells; experiment: TRAP assay: osteoclast formation in cocultures; assay type: cell-based; details: for inhibition of IL-11 induced osteoclast formation (TRAP+ multinucleated cells): 20 ng/ml IL-11, 10, 100 or 1000 ng/ml test substance, 9 days, FIGS. 7A, 7B, 8
Description: Particular IL-11 antagonists useful in the treatment of IL-11 related bone density disorders may be identified using the TRAP assay and the bone nodule formation assay, discussed herein. The TRAP assay is known in the art and involves co-culturing murine calvaria (osteoblasts) and bone marrow cells in vitro and then quantifying osteoclast formation by counting the number of tartrate-resistant acid phosphatase positive (TRAP+) multinucleated cells. […] These potential IL-11 antagonists may be screened to determine if they are IL-11 antagonists by examining their activity in the TRAP assay and the bone nodule formation assay.
Post menopausal osteoporosis is characterized by a general reduction in bone mass, resulting from an imbalance between osteoblast-mediated bone formation and bone resorption by the osteoclast. While the osteoblast is responsible for the formation of new bone or osteoid, it also appears to control the activation and/or number of osteoclasts by releasing cytokines such as IL-6 or IL-11. This process can be examined using a “TRAP assay” which involves co-culturing murine calvaria (osteoblasts) and bone marrow cells in vitro and then quantifying osteoclast formation by counting the number of tartrate-resistant acid phosphatase positive (TRAP+) multinucleated cells. Ovariectomized (OVX) rats or mice provide a satisfactory animal model for postmenopausal women in studies of osteoporosis.
The effect of IL-11 on osteoclast development in cocultures of murine bone marrow and calvaria cells was examined using standard techniques. Briefly, bone marrow cultures were established by removing femurs from mice, dissecting away soft tissue, and removing the distal and proximal ends of the femur. The marrow was then flushed with 5 ml α MEM and 1.0% penicillin-streptomycin using a 25 gauge needle. The bone marrow cells were then suspended to a concentration of 5 000 000 cells per ml in α MEM containing 15% fetal calf serum (charcoal treated) to remove cells adherent to plastic. The non-adherent cells were then co-cultured for an additional 9 days with murine calvaria cells prior to being fixed and stained for TRAPase activity (stains were obtained from Sigma Chemical Co., St. Louis, Mo.). TRAP+ MNC's have the ability to form resorption pits in smooth cortical bone slices and are therefore considered to be of osteoclast origin.
The effect of IL-11 on osteoclast development in cocultures of murine bone marrow and calvaria cells was examined by maintaining these cultures in the presence of various specific concentrations of IL-11 for 9 days. After 9 days of culture, the cells were stained for TRAPase activity and the number of multinucleated TRAP+ cells were determined. The results of this experiment are depicted in Table I. Data are expressed as mean +/− SEM. […]

[2] = system: murine calvaria cell culture; experiment: bone nodule formation assay with IL-11 antagonists in the presence of exogenous IL-11; assay type: cell-based; details: 20 ng/ml exogenous IL-11; for reduction of the inhibitory effect of IL-11 on bone nodule formation: very low levels/concentrations of test substance, 21 days, FIGS. 9, 10
Description: Bone nodule formation was measured using standard techniques. Briefly, calvaria cell cultures were established as follows: Calvaria cells were obtained from 2 day old fetal mouse calavariae by collagenase digestion. The cells were then cultured for 21 days in the presence of 0.5 mM ascorbic acid and 10 mM β-glycerophosphate. Where indicated in the experimental descriptions below, IL-11 and the mutant IL-11 receptor of experiment 4 were added to the culture at day 0 and every 3–4 days thereafter until the removal of the medium for analysis. Bone nodule formation was quantified by counting alizarin red stain nodules under a light microscope.
The effect of a gp130 binding region mutant soluble IL-11 receptor of type described in Experiment 4 and produced by the process of Experiment 3 on bone nodule formation in the presence of 20 ng/ml of exogenous IL-11 was assessed, and the results are depicted in FIG. 9. […] Thus, IL-11 antagonists such as mutant IL-11Rs can enhance bone nodule formation.
It was desired to determine if bone nodule formation could be modulated in a manner similar to that reported in Example 6 using an IL-11 antagonist peptide such as the one used in Example 5. To achieve this, the procedure of Example 6 was repeated, with the substitution of peptide 1 for the solubilized mutant IL-11 receptor. The results of this experiment are depicted in FIG. 10.

[3] = system: murine calvaria cells (primary osteoblasts); experiment: bone nodule formation assay: effect of IL-11 alone; assay type: cell-based; details: various concentrations of IL-11; 250 μM ascorbic acid, 10 mM β-glycerol phosphate; FIG. 5
Description: The effect of IL-11 on bone formation was examined using the bone nodule formation assay. Murine calvaria cells (primary osteoblasts) were cultured in the presence of 250 μM ascorbic acid and 10 mM β-glycerol phosphate, and in the presence of various amounts of interleukin-11. After culturing, the culture media were plated out and the number of bone nodules per plate was counted.
The results are shown on the accompanying FIG. 5, where number of bone nodules per plate is plotted as the vertical axis, with the different concentrations of interleukin on the horizontal axis, not to scale. Each bar represents the result on experiments containing a different concentration of interleukin-11, as noted on FIG. 5.

gp130 = details: Karow et al., Biochem J. (1996); cited from earlier work
IL-11 = biological target: T1, IL-11; details: Karow et al., Biochem J. (1996); cited from earlier work

Molecule | inhibition of the productive interaction of IL-11 and IL-11R (IL-11 and IL-11R) | inhibition of IL-11 induced osteoclast formation (TRAP+ multinucleated cells) [1] | reduction of the inhibitory effect of IL-11 on bone nodule formation [2] | further results
H289→Y289 mutant solubilized IL-11 receptor (from UniProt Q14626 24-370) |  |  |  | concentration of mutant receptor allowing enhanced bone nodule formation relative to no exogenous IL-11 (Interleukin-11 (IL-11)): 10 ng/mL
RRLRASW [SEQ ID NO. 5] | capable of inhibiting the productive interaction of IL-11 and IL-11R |  |  | 
RRLRASWTYPASWPCQPHFL [Peptide 1] | binds IL-11 and prevents its productive interaction with IL-11R | inhibits IL-11 induced osteoclast formation | able to reduce the inhibitory effects of 20 ng/ml exogenous IL-11 | 
SILRPDPPQGLRVESVPGYP [SEQ. ID. NO. 6] | inhibit the productive interaction between IL-11 and IL-11R |  |  | 
Thr Tyr Pro Ala Ser Trp Pro Cys Gln Pro His Phe Leu Leu Lys Phe Arg Leu Gin Tyr (TYPASWPCQPHFLLKFRLQY; listed as Homo sapiens) [Peptide 2, reference compound] |  | does not | unable to reduce the inhibition of nodule formation by IL-11 | 
B1 |  |  |  | number of bone nodules per plate (bone formation) [3]: can inhibit bone nodule formation; also recorded: inhibits bone formation; effect of IL-11 on osteoclast formation in vitro ([1]; cocultures of murine calvaria and bone marrow cells): potent simulator of osteoclast formation; affinity for gp130 (gp130): below the level of detection
B2 |  | capable of inhibiting IL-11-induced osteoclast formation | can reverse the effect of exogenous IL-11 | bone nodule formation relative to level without exogenous IL-11 ([2]; 10 ng/ml mutant receptor, FIG. 9): enhanced bone nodule formation relative to the level observed in the absence of exogenous IL-11
B3 |  |  |  | affinity for IL-11 ligand (IL-11): high affinity
